The values that follow come from article doi:10.1101/2024.05.25.595884 (bioRxiv, 2024).

Sequences and labels used below:
B1: Trastuzumab scFab HCDR3 variant clone H3_72 (Fab, V domains shown)
VH: EVQLVESGGGLVQPGGSLRLSCAASGFNIKDTYIHWVRQAPGKGLEWVARIYPTNGYTRYADSVKGRFTISADTSKNTAYLQMNSLRAEDTAVYYCSRWRGKGFTAMDYWGQGTLVTVSS
VL: not shown
B2: Trastuzumab scFab HCDR2 variant IRPVRG (Fab, V domains shown)
VH: EVQLVESGGGLVQPGGSLRLSCAASGFNIKDTYIHWVRQAPGKGLEWVARIRPVRGYTRYADSVKGRFTISADTSKNTAYLQMNSLRAEDTAVYYCSRWGGDGFYAMDYWGQGTLVTVSS
VL: not shown
B3: Trastuzumab scFab HCDR3 variant clone H3_85 (Fab, V domains shown)
VH: EVQLVESGGGLVQPGGSLRLSCAASGFNIKDTYIHWVRQAPGKGLEWVARIYPTNGYTRYADSVKGRFTISADTSKNTAYLQMNSLRAEDTAVYYCSRWGRHGFNAMDYWGQGTLVTVSS
VL: not shown
B4: Trastuzumab scFab HCDR2/HCDR3 cross-combination clone H2/3_03 (Fab, V domains shown)
VH: EVQLVESGGGLVQPGGSLRLSCAASGFNIKDTYIHWVRQAPGKGLEWVARIKPANGYTRYADSVKGRFTISADTSKNTAYLQMNSLRAEDTAVYYCSRWRSIGFYAMDYWGQGTLVTVSS
VL: not shown
B5: Trastuzumab scFab HCDR2/HCDR3 cross-combination clone H2/3_07 (Fab, V domains shown)
VH: EVQLVESGGGLVQPGGSLRLSCAASGFNIKDTYIHWVRQAPGKGLEWVARIRPVRGYTRYADSVKGRFTISADTSKNTAYLQMNSLRAEDTAVYYCSRWRSIGFYAMDYWGQGTLVTVSS
VL: not shown
B6: Trastuzumab scFab HCDR3 variant clone H3_77 (Fab, V domains shown)
VH: EVQLVESGGGLVQPGGSLRLSCAASGFNIKDTYIHWVRQAPGKGLEWVARIYPTNGYTRYADSVKGRFTISADTSKNTAYLQMNSLRAEDTAVYYCSRWRRKGFYAMDYWGQGTLVTVSS
VL: not shown
B7: Trastuzumab scFab HCDR3 variant clone H3_29 (Fab, V domains shown)
VH: EVQLVESGGGLVQPGGSLRLSCAASGFNIKDTYIHWVRQAPGKGLEWVARIYPTNGYTRYADSVKGRFTISADTSKNTAYLQMNSLRAEDTAVYYCSRWRSIGFYAMDYWGQGTLVTVSS
VL: not shown

The experiment has as its target full-length human HER2 with enhanced green fluorescent protein (eGFP) at the C-terminal end (Homo sapiens, UniProt P04626). Put plainly: SPID.
B1: the binding result is “binds”.
As usually defined, the Kd is the equilibrium constant for the complex coming apart. B2: the Kd was 2.6 nM.
Turning to B3, the binding result is “binds”.
As to B4, the Kd was under 1 nM and the “fold enhancement in affinity compared to the original Trastuzumab” value amounted to 6 fold.
On the same counts, the results for B5 are under 1 nM and 6 fold.
For B6, the binding result is listed as “binds”.
On the same count and under the same terms, in the case of B7 it was “binds”.
